Experimental data as given in US20220096653A1, “CONJUGATE COMPRISING LIGAND AND CEACAM5 ANTIBODY FAB FRAGMENT” (ASTELLAS PHARMA INC., priority 2019, published 2022).
Like-named read-outs stand apart in the source and are kept apart here.

Columns and labels:
[1] = target: human cancer-specific MUC1 peptide (PTL 1) (human); assay: ELISA on immobilised human cancer-specific MUC1 peptide, 4-parameter fit, duplicate (Example 6-1)
[2] = target: human cancer-specific MUC1 peptide (PTL 1) (human); assay: ELISA on immobilised human cancer-specific MUC1 peptide, 4-parameter fit, duplicate (Example 6-2)
[3] = target: human cancer-specific MUC1 peptide (Homo sapiens, UniProt P15941); assay: ELISA binding activity of anti-human MUC1 antibody Fab^5 fragment conjugates (Example 6-2)
Procedure: (§1) Each anti-human MUC1 antibody Fab^5 fragment conjugate prepared by the method of Example 5 was subjected to ELISA to evaluate the binding activity thereof to human cancer-specific MUC1. In the present test, 20×PBS/Tween 20 Buffer (Thermo Fisher Scientific Inc., 28352) diluted 20-fold with distilled water was used as a wash liquid. In addition, for bovine serum albumin (BSA) used in the present test, 30% Bovine Serum Albumin solution (Sigma-Aldrich, Inc., A9576-50ML) was added in an appropriate proportion for use. A human cancer-specific MUC1 peptide (PTL 1) at 0.5 μmol/L was added to a Nunc MaxiSorp White 384 plate (Nunc, 460372) at 30 μL per well, and the plate was incubated overnight at 4° C. for immobilization. The MUC1 peptide was removed by reverse centrifugation, and then blocking was carried out by adding a PBS/Tween 20 buffer containing 5.0% BSA. Thereafter, the blocking solution was removed by reverse centrifugation, a solution of each anti-human MUC1 antibody Fab^5 fragment conjugate (Ex-No. 101-113) described above at about 10000 ng/mL was diluted in 14 steps by 3-fold dilution using a PBS/Tween 20 buffer containing 1.0% BSA, and 30 μL was added per well and incubated at room temperature for 60 minutes. The plate was washed 3 times with a PBS/Tween 20 buffer, and Horseradish Peroxidase-labeled goat anti-human IgK antibody (Southern Biotechnology Associates, Inc.) diluted 10000-fold using a PBS/Tween 20 buffer containing 5.0% BSA was added at 30 μL per well and incubated at room temperature for 30 minutes. The plate was washed 3 times with a PBS/Tween 20 buffer, and ECL Prime Western Blotting DETECTION Reagent (GE Healthcare, RPN2232) as a substrate was added at 30 μL per well. The substrate was incubated at room temperature for 15 minutes, and then a signal value thereof was measured using an Envision counter (PerkinElmer, Inc.).
(§2) The test for each antibody was carried out in duplicate, and the EC50 value was calculated using a 4-parameter logistic curve model.

[4] = target: human cancer-specific MUC1 peptide; assay: ELISA binding activity of anti-human MUC1 antibody Fab^5 fragment conjugates (Example 6-1)
Procedure: as §1, with “104, 108, or 112)” for “101-113)”
as §2

[5] = set-up: species or system mice (BALB/c nu/nu); details: mouse, in vivo
Procedure: A Gd-labeled conjugate of the conjugate containing a peptide linker produced in one of the above Examples was administered from the tail vein of the tumor-bearing mice so that the protein mass was 0.02 mg (100 μL) per animal. As the tumor-bearing mice used in the present Example, mice (BALB/c nu/nu) that were in a tumor-bearing state brought about by transplanting human breast cancer cell line MDA-MB-468 (ATCC(registered trademark); HTB-132) at 5.0×10^6 cells/mouse subcutaneously on the back before administration of the sample were used. 24 hours after administration of the sample, the mice were sacrificed, the kidneys and the tumor were removed, and the amounts of Gd in the kidneys and in the tumor were measured using ICP-MS. The present test was carried out in 3 cases in each group, and the mean value of the 3 cases was calculated. The amount of Gd contained per kidney after administration was shown as a percentage of the amount of Gd administered (% of dose/tissue), and the amount of Gd contained per g of tumor tissue was shown as a percentage of the total amount of Gd administered (% of dose/g).

[6] = set-up: species or system mice (BALB/c or BALB/c nu/nu); details: mouse, in vivo
Procedure: A Gd-labeled conjugate of the conjugate containing a peptide linker produced in one of the above Examples was administered from the tail vein of mice (BALB/c or BALB/c nu/nu) so that the protein mass was 0.02 mg (100 μL) per animal. After about 24 hours, the mice were sacrificed and the kidneys were removed, and the amount of Gd in the kidneys was measured using ICP-MS. The present test was carried out in 3 cases in each group, the mean value of the 3 cases was calculated, and the amount of Gd contained per kidney after administration was shown as a percentage (% of dose/tissue) of the total amount of Gd administered.
Based on the amount of Gd contained in the kidneys of the control conjugate, the proportion of decrease in the amount of Gd contained in the kidneys of each of the conjugates having a peptide linker was determined.

[7] = each conjugate run in duplicate, Table 54, read-out: EC50

Sequence of human cancer-specific MUC1 peptide (Homo sapiens, UniProt P15941) (P15941 136-155): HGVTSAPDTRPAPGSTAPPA

B1: [Gd/DOTA-NH-CH2-(1,4-Ph)-NH-C(═O)-Met-Ile-NH-(CH2)2-(A-4 and/or A-5)]p-Fab^5 (Fab, V domains shown)
VH: QVQLVQSGAEVKKPGASVKVSCKASGYTFTNYGLSWVRQAPGQGLEWMGENHPGSGIIYHNEKFRGRVTLTADRSTSTAYMELSSLRSEDTAVYYCARSSGTRGFDYWGQGTLVTVSS
VL: DVVMTQTPLSLSVTPGQPASISCRSSQSIVHSNGNTYLEWYLQKPGQSPQLLIYRVSNRFSGVPDRFSGSGSGTDFTLKISRVEAEDVGVYYCFQGSHGPWTFGQGTKLEIKR
modifications: labeling may sit on this chain; sites not stated; labeling portion (MW 1092) on amino groups of the Fab, sites and chain not stated; 1-3 per Fab by MS; Gln 1 pyroglutamic acid as Fab^5 is defined in paragraph 370
Q: For B1, which EC50 [1] is on record?
A: Its EC50 is 0.08 nM.

B2: [Gd/DOTA-NH-CH2-(1,4-Ph)-NH-C(═O)-Met-Ile-NH-(CH2)2-(A-3)]p-Fab^5 (Fab, V domains shown)
VH: QVQLVQSGAEVKKPGASVKVSCKASGYTFTNYGLSWVRQAPGQGLEWMGENHPGSGIIYHNEKFRGRVTLTADRSTSTAYMELSSLRSEDTAVYYCARSSGTRGFDYWGQGTLVTVSS
VL: DVVMTQTPLSLSVTPGQPASISCRSSQSIVHSNGNTYLEWYLQKPGQSPQLLIYRVSNRFSGVPDRFSGSGSGTDFTLKISRVEAEDVGVYYCFQGSHGPWTFGQGTKLEIKR
modifications: labeling may sit on this chain; sites not stated; labeling portion (MW 1187) on amino groups of the Fab, sites and chain not stated; 1-2 per Fab by MS; Gln 1 pyroglutamic acid as Fab^5 is defined in paragraph 370
Q: Which EC50 [1] does the source give for B2 here?
A: The EC50 was 0.15 nM.

B3: Ex-No 108, conjugate of Fab^5 without peptide linker (structure given only as drawing CHEM-US-00165) (Fab, V domains shown)
VH: QVQLVQSGAEVKKPGASVKVSCKASGYTFTNYGLSWVRQAPGQGLEWMGENHPGSGIIYHNEKFRGRVTLTADRSTSTAYMELSSLRSEDTAVYYCARSSGTRGFDYWGQGTLVTVSS
VL: DVVMTQTPLSLSVTPGQPASISCRSSQSIVHSNGNTYLEWYLQKPGQSPQLLIYRVSNRFSGVPDRFSGSGSGTDFTLKISRVEAEDVGVYYCFQGSHGPWTFGQGTKLEIKR
modifications: labeling may sit on this chain; sites not stated; low molecular weight molecule (MW 542) bound to the Fab, sites and chain not stated; 1-3 per Fab by MS; Gln 1 pyroglutamic acid as Fab^5 is defined in paragraph 370
Q: With B3 as the molecule, how does the EC50 [1] read?
A: Its EC50 is 0.07 nM.

Q: And the EC50 [2]?
A: The EC50 was 0.07 nM.

B4: P10-2: anti-human MUC1 antibody Fab fragment disclosed in International Publication WO2018/092885; heavy chain fragment SEQ ID NO: 8, light chain SEQ ID NO: 10 (antibody)
heavy: QVQLVQSGAEVKKPGASVKVSCKASGYTFTNYGLSWVRQAPGQGLEWMGENHPGSGIIYHNEKFRGRVTLTADRSTSTAYMELSSLRSEDTAVYYCARSSGTRGFDYWGQGTLVTVSSASTKGPSVFPLAPSSKSTSGGTAALGCLVKDYFPEPVTVSWNSGALTSGVHTFPAVLQSSGLYSLSSVVTVPSSSLGTQTYICNVNHKPSNTKVDKKVEPKSCD
light: DVVMTQTPLSLSVTPGQPASISCRSSQSIVHSNGNTYLEWYLQKPGQSPQLLIYRVSNRFSGVPDRFSGSGSGTDFTLKISRVEAEDVGVYYCFQGSHGPWTFGQGTKLEIKRTVAAPSVFIFPPSDEQLKSGTASVVCLLNNFYPREAKVQWKVDNALQSGNSQESVTEQDSKDSTYSLSSTLTLSKADYEKHKVYACEVTHQGLSSPVTKSFNRGEC
modifications: P10-2 Fab heavy chain fragment; Antibody light chain
Q: Which results are given for B4?
A: EC50 ([3]; EC50 value for each of 3 runs, Table 53, read-out: EC50 P10-2): 0.06 nM; EC50 ([4]; EC50 value for each of 3 runs, Table 51, read-out: EC50 P10-2): 0.06 nM

B5: [Gd/DOTA-NH—CH2-(1,4-Ph)-NH—C(═O)-Met-Ile-NH—(CH2)2—Z1(#N)]p-Fab^5 (conjugate)
heavy: QVQLVQSGAEVKKPGASVKVSCKASGYTFTNYGLSWVRQAPGQGLEWMGENHPGSGIIYHNEKFRGRVTLTADRSTSTAYMELSSLRSEDTAVYYCARSSGTRGFDYWGQGTLVTVSSASTKGPSVFPLAPSSKSTSGGTAALGCLVKDYFPEPVTVSWNSGALTSGVHTFPAVLQSSGLYSLSSVVTVPSSSLGTQTYICNVNHKPSNTKVDKKVEPKSCD
light: DVVMTQTPLSLSVTPGQPASISCRSSQSIVHSNGNTYLEWYLQKPGQSPQLLIYRVSNRFSGVPDRFSGSGSGTDFTLKISRVEAEDVGVYYCFQGSHGPWTFGQGTKLEIKRTVAAPSVFIFPPSDEQLKSGTASVVCLLNNFYPREAKVQWKVDNALQSGNSQESVTEQDSKDSTYSLSSTLTLSKADYEKHKVYACEVTHQGLSSPVTKSFNRGEC
modifications: non-natural residues
Q: With B5 as the molecule, how does the EC50 [3, 7] read?
A: Its EC50 is 0.08 nM.

B6: [Gd/DOTA-NH—CH2-(1,4-Ph)-NH—C(═O)-Met-Ile-NH—(CH2)2-(A-3)]p-Fab^5 (conjugate)
heavy: QVQLVQSGAEVKKPGASVKVSCKASGYTFTNYGLSWVRQAPGQGLEWMGENHPGSGIIYHNEKFRGRVTLTADRSTSTAYMELSSLRSEDTAVYYCARSSGTRGFDYWGQGTLVTVSSASTKGPSVFPLAPSSKSTSGGTAALGCLVKDYFPEPVTVSWNSGALTSGVHTFPAVLQSSGLYSLSSVVTVPSSSLGTQTYICNVNHKPSNTKVDKKVEPKSCD
light: DVVMTQTPLSLSVTPGQPASISCRSSQSIVHSNGNTYLEWYLQKPGQSPQLLIYRVSNRFSGVPDRFSGSGSGTDFTLKISRVEAEDVGVYYCFQGSHGPWTFGQGTKLEIKRTVAAPSVFIFPPSDEQLKSGTASVVCLLNNFYPREAKVQWKVDNALQSGNSQESVTEQDSKDSTYSLSSTLTLSKADYEKHKVYACEVTHQGLSSPVTKSFNRGEC
modifications: non-natural residues
Q: Which “Renal residual amount (tumor-bearing mice) % of dose/tissue” value [5] does the source give for B6 here?
A: The value was 4.13 % of dose/tissue.

Q: And the “Renal residual amount (tumor-bearing mice) Proportion of decrease” value [5]?
A: The value was 88.08%.

Q: And the “Renal residual amount (normal mice) % of dose/tissue” value [6]?
A: The value was 2.80 % of dose/tissue.

Q: What about the “Renal residual amount (normal mice) Proportion of decrease” value [6] of the same molecule?
A: Its value is 91.52%.

Q: And the EC50 ([4]; each conjugate run in duplicate, Table 52, read-out: EC50)?
A: Its EC50 is 0.15 nM.

B7: [Gd/DOTA-[2,5-(1,2,3,4-tetrahydroisoquinoline)]-C(═O)-Met-Gly-Lys*-C(═S)—NH-(1,4-Ph)-NH—C(═S)]p-Fab^5 (conjugate)
heavy: QVQLVQSGAEVKKPGASVKVSCKASGYTFTNYGLSWVRQAPGQGLEWMGENHPGSGIIYHNEKFRGRVTLTADRSTSTAYMELSSLRSEDTAVYYCARSSGTRGFDYWGQGTLVTVSSASTKGPSVFPLAPSSKSTSGGTAALGCLVKDYFPEPVTVSWNSGALTSGVHTFPAVLQSSGLYSLSSVVTVPSSSLGTQTYICNVNHKPSNTKVDKKVEPKSCD
light: DVVMTQTPLSLSVTPGQPASISCRSSQSIVHSNGNTYLEWYLQKPGQSPQLLIYRVSNRFSGVPDRFSGSGSGTDFTLKISRVEAEDVGVYYCFQGSHGPWTFGQGTKLEIKRTVAAPSVFIFPPSDEQLKSGTASVVCLLNNFYPREAKVQWKVDNALQSGNSQESVTEQDSKDSTYSLSSTLTLSKADYEKHKVYACEVTHQGLSSPVTKSFNRGEC
modifications: non-natural residues
Q: For B7, which EC50 [3, 7] is on record?
A: Its EC50 is 0.19 nM.
